Positions count from the first letter of the chain named. Each block holds one binder with its values, some of them ahead of it.
Columns and labels:
BCMA = molecular target: T1, BCMA (Homo sapiens (Human), UniProt Q02223 1-54, limits assumed); experiment: ELISA, format not described; set-up: unit not given here
T1 sequence: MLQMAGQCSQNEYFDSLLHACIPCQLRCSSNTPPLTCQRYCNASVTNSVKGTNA

P26 = molecular target: T2, P26 (human, UniProt P02771 381-609, limits assumed); experiment: ELISA, format not described; set-up: unit not given here
T2 construct: also called AFP p26
T2 sequence: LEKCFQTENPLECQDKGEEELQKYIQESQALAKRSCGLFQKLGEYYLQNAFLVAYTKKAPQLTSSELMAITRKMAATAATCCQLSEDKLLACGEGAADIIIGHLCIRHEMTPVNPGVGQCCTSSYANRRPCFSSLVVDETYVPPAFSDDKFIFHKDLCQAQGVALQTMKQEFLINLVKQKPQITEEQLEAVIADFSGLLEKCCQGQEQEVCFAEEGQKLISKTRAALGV

B1: D-domain SEQ ID NO: 63 (designed binder)
chain: MGSWSEFMNRLDAITYRLVALGGSEAELAAFEKEIAAFESELQAYKGKGNPEVELLRHYAAQIRDSLQAYRHN
ELISA_avg (BCMA): 12.9

B2: D-domain SEQ ID NO: 69 (designed binder)
chain: B1 chain with M8I, N9D, V19F, L55N, H58W, A61G, Q62V, D65E, S66Q
ELISA_avg (BCMA): 10.2

B3: D-domain SEQ ID NO: 64 (designed binder)
chain: B1 chain with S5T, N9E, T15S, V19W, L55V, H58D, Q62I, D65N
ELISA_avg (BCMA): 9.87

B4: D-domain SEQ ID NO: 65 (designed binder)
chain: B1 chain with S5A, N9D, V19W, L55E, H58G, Q62I, D65S, S66E
ELISA_avg (BCMA): 10.8

B5: D-domain SEQ ID NO: 70 (designed binder)
chain: MGSWSEFYDRLYAINQRLFALGGSEAELAAFEKEIAAFESELQAYKGKGNPEVEDLRWYAAFIRAQLQAYRHN
ELISA_avg (BCMA): 5.98

B6: D-domain SEQ ID NO: 71 (designed binder)
chain: B5 chain with S5Y, Y12D, N15V, Q16H, F19D, D55N, F62M, A65V, Q66R
ELISA_avg (BCMA): 14.7

B11: D domain SEQ ID NO: 887 (designed binder)
chain: MGSWTEFWHRLEAIDSRLWALGGSEAELAAFEKEIAAFESELQAYKGKGNPEVESLREHAAHIRVWLQAYRHN
ELISA_avg (P26): 13.2

B13: D domain SEQ ID NO: 880 (designed binder)
chain: B11 chain with T5V, W8H, H9Y, E12Q, S16A, S55E, E58V, V65K
ELISA_avg (P26): 14.8

B17: D domain SEQ ID NO: 876 (designed binder)
chain: B11 chain with T5F, W8Y, H9E, E12N, S55K, E58A, H62S, V65T
ELISA_avg (P26): 27.1

B19: D domain SEQ ID NO: 885 (designed binder)
chain: B11 chain with T5Y, W8Y, H9L, E12D, S16H, S55M, V65K
ELISA_avg (P26): 16

B22: D domain SEQ ID NO: 859 (designed binder)
chain: B11 chain with T5F, W8Y, H9D, E12N, S16A, S55N, E58V, H62A, V65E
ELISA_avg (P26): 5.92

B24: D-domain SEQ ID NO: 74 (designed binder)
chain: MGSWFEFQHRLEAISMRLHALGGSEAELAAFEKEIAAFESELQAYKGKGNPEVEELRWQAAYIRVVLQAYRHN
ELISA_avg (BCMA): 4.05

B25: D-domain SEQ ID NO: 77 (designed binder)
chain: B24 chain with F5Y, H9V, E12Q, M16W, H19K, P51H, W58I, Y62L, V66M
ELISA_avg (BCMA): 14.2

B27: D-domain SEQ ID NO: 75 (designed binder)
chain: B24 chain with F5V, H9S, S15A, M16T, H19R, Y62W, V65M, V66M
ELISA_avg (BCMA): 18

B29: D-domain SEQ ID NO: 66 (designed binder)
chain: MGSWIEFQERLDAIFYRLHALGGSEAELAAFEKEIAAFESELQAYKGKGNPEVEDLRDAAATIRRQLQAYRHN
ELISA_avg (BCMA): 18.6

B33: D-domain SEQ ID NO: 108 (designed binder)
chain: MGSWSEFQQRLHAIRTRLYALGGSEAELAAFEKEIAAFESELQAYKGKGNPEVEELRFEAAIIRVMLQAYRHN
ELISA_avg (BCMA): 11.6

B37: D-domain SEQ ID NO: 106 (designed binder)
chain: MGSWEEFSDRLEAILRRLDALGGSEAELAAFEKEIAAFESELQAYKGKGNPEVEDLRFAAAIIRVQLQAYRHN
ELISA_avg (BCMA): 9.08

B38: D-domain SEQ ID NO: 107 (designed binder)
chain: B37 chain with E5M, D9H, E12D, L15H, R16E, D19Y
ELISA_avg (BCMA): 6.3

B40: D-domain SEQ ID NO: 57 (designed binder)
chain: MGSWVEFAWRLEAIKQRLTALGGSEAELAAFEKEIAAFESELQAYKGKGNPEVEELRLYAAKIRRVLQAYRHN
ELISA_avg (BCMA): 8.9

B46: D-domain SEQ ID NO: 54 (designed binder)
chain: B40 chain with A8S, K15R, T19Q, E55S, L58S, K62R, R65Q, V66E
ELISA_avg (BCMA): 19.1

B47: D-domain SEQ ID NO: 61 (designed binder)
chain: MGSWNEFAWRLIAINQRLWALGGSEAELAAFEKEIAAFESELQAYKGKGNPEVESLRHFAANIRNDLQAYRHN
ELISA_avg (BCMA): 11.5

B48: D-domain SEQ ID NO: 60 (designed binder)
chain: B47 chain with N5S, I12E, N15H, W19S, H58L, N62Q, N65E, D66N
ELISA_avg (BCMA): 18

B49: D domain SEQ ID NO: 854 (designed binder)
chain: MGSWVEFSGRLIAIDNRLWALGGSEAELAAFEKEIAAFESELQAYKGKGNPEVEYLRMWAAEIRYILQAYRHN
ELISA_avg (P26): 5.28

B52: D domain SEQ ID NO: 853 (designed binder)
chain: B49 chain with V5M, S8F, G9D, I12V, N16E, Y65F, I66L
ELISA_avg (P26): 18.6

B53: D domain SEQ ID NO: 852 (designed binder)
chain: B49 chain with V5H, S8I, G9T, I12E, N16Q, M58F, Y65F
ELISA_avg (P26): 16.9

Next, values leading:

ELISA_avg (P26): 9.6
B7: D domain SEQ ID NO: 851 (designed binder)
chain: MGSWHEFYDRLDAIYFRLWALGGSEAELAAFEKEIAAFESELQAYKGKGNPEVELLRLLAAEIRKELQAYRHN

ELISA_avg (BCMA): 7.58
B8: D-domain SEQ ID NO: 98 (designed binder)
chain: MGSWSEFRGRLQAIHSRLNALGGSEAELAAFEKEIAAFESELQAYKGKGNPEVEELRYSAAIIRIYLQAYRHN

ELISA_avg (P26): 18.4
B9: D domain SEQ ID NO: 857 (designed binder)
chain: MGSWKEFIQRLDAIHYRLWALGGSEAELAAFEKEIAAFESELQAYKGKGNPEVEYLRFVAAFIRFELQAYRHN

ELISA_avg (P26): 28.3
B10: D domain SEQ ID NO: 858 (designed binder)
chain: B9 chain with K5S, Q9F, Y16S, W19Q, V59I, F62E, F65L, E66K

ELISA_avg (P26): 19.2
B12: D domain SEQ ID NO: 868 (designed binder)
chain: B11 chain with T5L, W8Y, E12N, E58D, V65E

ELISA_avg (P26): 10
B14: D domain SEQ ID NO: 882 (designed binder)
chain: MGSWNEFMDRLNAIDNRLWALGGSEAELAAFEKEIAAFESELQAYKGKGNPEVENLRKQAASIRLWLQAYRHN

ELISA_avg (P26): 30.3
B15: D domain SEQ ID NO: 879 (designed binder)
chain: B11 chain with T5E, W8Y, H9Y, S16A, W19F, S55E, E58V, V65D

ELISA_avg (P26): 18.2
B16: D domain SEQ ID NO: 884 (designed binder)
chain: B11 chain with T5Y, W8V, H9V, E12F, S16E, V65S

ELISA_avg (P26): 27
B18: D domain SEQ ID NO: 878 (designed binder)
chain: B11 chain with T5S, W8V, H9K, E12D, S16Q, E58V, H62A, V65A

ELISA_avg (P26): 26
B20: D domain SEQ ID NO: 881 (designed binder)
chain: B49 chain with S8V, I12N, N16A, Y55E, M58H, W59H, Y65N, I66W

ELISA_avg (P26): 28.7
B21: D domain SEQ ID NO: 883 (designed binder)
chain: B14 chain with M8F, D9Q, N16E, N55D, K58Q, Q59H, S62N, L65W

ELISA_avg (P26): 9.4
B23: D domain SEQ ID NO: 877 (designed binder)
chain: B11 chain with T5I, W8Y, H9W, S16Q, S55D, E58V, H62A, V65W

ELISA_avg (BCMA): 18.7
B26: D-domain SEQ ID NO: 105 (designed binder)
chain: B37 chain with E5I, D9H, L15V, R16D, D19G, D55E, F58N, A59T, Q66Y

ELISA_avg (BCMA): 3.11
B28: D-domain SEQ ID NO: 76 (designed binder)
chain: B24 chain with F5E, H9Y, E12G, S15A, M16A, H19Q, Y62M, V65F, V66M

ELISA_avg (BCMA): 14.1
B30: D-domain SEQ ID NO: 68 (designed binder)
chain: B29 chain with I5Y, E9S, H19F, D55K, D58E, T62S, R65T

ELISA_avg (BCMA): 20
B31: D-domain SEQ ID NO: 67 (designed binder)
chain: B29 chain with E9Q, H19Y, D55N, A59M, T62I, R65K

ELISA_avg (BCMA): 9.76
B32: D-domain SEQ ID NO: 102 (designed binder)
chain: B33 chain with S5V, Q8Y, Q9D, H12A, T16K, E59R, I62L, V65I, M66W

ELISA_avg (BCMA): 4.68
B34: D-domain SEQ ID NO: 109 (designed binder)
chain: B33 chain with S5Y, Q9N, H12G, R15N, T16R, Y19N

ELISA_avg (BCMA): 3.31
B35: D-domain SEQ ID NO: 110 (designed binder)
chain: B33 chain with S5Q, Q8T, Q9G, T16H, Y19E, I62Y, M66W

ELISA_avg (BCMA): 8.55
B36: D-domain SEQ ID NO: 62 (designed binder)
chain: B47 chain with N5T, N15D, W19M, S55I, H58E, F59L, N62E, N65F, D66H

ELISA_avg (BCMA): 13
B39: D-domain SEQ ID NO: 52 (designed binder)
chain: MGSWHEFTWRLIAIRERLFALGGSEAELAAFEKEIAAFESELQAYKGKGNPEVEELREYAASIRNMLQAYRHN

ELISA_avg (BCMA): 8.43
B41: D-domain SEQ ID NO: 56 (designed binder)
chain: B40 chain with E12T, K15D, T19S, E55N, L58F, R65S, V66H

ELISA_avg (BCMA): 6.08
B42: D-domain SEQ ID NO: 58 (designed binder)
chain: B40 chain with E12T, K15H, Q16T, T19W, E55S, L58K, R65K, V66Q

ELISA_avg (BCMA): 21.3
B43: D-domain SEQ ID NO: 55 (designed binder)
chain: B40 chain with A8S, K15R, E55D, L58K, K62R, R65G, V66E

ELISA_avg (BCMA): 15.1
B44: D-domain SEQ ID NO: 59 (designed binder)
chain: B40 chain with V5T, K15N, T19Q, N50K, E55A, L58A, R65T, V66R

ELISA_avg (BCMA): 9.92
B45: D-domain SEQ ID NO: 53 (designed binder)
chain: B40 chain with V5I, A8S, K15R, T19Q, E55S, L58S, K62R, R65Q, V66E

ELISA_avg (P26): 17.9
B50: D domain SEQ ID NO: 856 (designed binder)
chain: B9 chain with K5H, I8M, Q9E, D12I, H15D, Y16G, F65D, E66V

ELISA_avg (P26): 21.4
B51: D domain SEQ ID NO: 855 (designed binder)
chain: B49 chain with S8H, G9H, I12F, N16E, W59V

Reference: patent publication US20250026849A1 (ARCELLX, published 2025)
